Data: patent publication EP2213302A2 (Genentech, Inc., dated 2010)

Target: T1, DR4 ECD immunoadhesin (human, UniProt O00220 24-218)
T1 construct: also called DR4-IgG; DR4 ECD-IgG; not shown: CH1, hinge and Fc region of human immunoglobulin G1 heavy chain
Test: KinExA equilibrium, antibody in solution with DR4-IgG, DR4-IgG beads

T1 sequence (O00220 other isoform, or with tags, fused parts or gaps): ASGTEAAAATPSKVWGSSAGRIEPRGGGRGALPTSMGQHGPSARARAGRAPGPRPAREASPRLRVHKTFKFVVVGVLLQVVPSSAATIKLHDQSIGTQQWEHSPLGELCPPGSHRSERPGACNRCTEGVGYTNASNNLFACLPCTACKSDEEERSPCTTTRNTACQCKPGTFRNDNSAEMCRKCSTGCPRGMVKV

Kd: 5 pM
B1: 4H6.17.8 anti-DR4 monoclonal antibody (murine) (antibody, V domains shown)
VH: QVQLKESGPGLVAPSQSLSITCTVSGFSLTSYGVHWVRQPPGKGLEWLGVIWAVGSTNYNSALMSRLSISKDNSKSQVFLKMNSLQTDDTAMYYCAREGEFDYYGSSLLSYHSMNFWGQGTSVTVS
VL: DIQMTQTTSSLSASLGDRVTISCRASQDISNYLNWYQRKPDGTVKLLIYYTSRLHSGVPSRFSGSGSGTDYSLTISNLEQEDIATYFCQQGNTLPFTFGSATKLELT
notes: Murine IgG1 from hybridoma ATCC HB-12455; only the variable domains apply here; the listing has Xaa at 20)
